Measurements taken from PMC3648612 (Nature structural & molecular biology, 2013).

T1: Med12 (Srb8), S. cerevisiae (S. cerevisiae, UniProt P25648 1-1427)
T1 sequence: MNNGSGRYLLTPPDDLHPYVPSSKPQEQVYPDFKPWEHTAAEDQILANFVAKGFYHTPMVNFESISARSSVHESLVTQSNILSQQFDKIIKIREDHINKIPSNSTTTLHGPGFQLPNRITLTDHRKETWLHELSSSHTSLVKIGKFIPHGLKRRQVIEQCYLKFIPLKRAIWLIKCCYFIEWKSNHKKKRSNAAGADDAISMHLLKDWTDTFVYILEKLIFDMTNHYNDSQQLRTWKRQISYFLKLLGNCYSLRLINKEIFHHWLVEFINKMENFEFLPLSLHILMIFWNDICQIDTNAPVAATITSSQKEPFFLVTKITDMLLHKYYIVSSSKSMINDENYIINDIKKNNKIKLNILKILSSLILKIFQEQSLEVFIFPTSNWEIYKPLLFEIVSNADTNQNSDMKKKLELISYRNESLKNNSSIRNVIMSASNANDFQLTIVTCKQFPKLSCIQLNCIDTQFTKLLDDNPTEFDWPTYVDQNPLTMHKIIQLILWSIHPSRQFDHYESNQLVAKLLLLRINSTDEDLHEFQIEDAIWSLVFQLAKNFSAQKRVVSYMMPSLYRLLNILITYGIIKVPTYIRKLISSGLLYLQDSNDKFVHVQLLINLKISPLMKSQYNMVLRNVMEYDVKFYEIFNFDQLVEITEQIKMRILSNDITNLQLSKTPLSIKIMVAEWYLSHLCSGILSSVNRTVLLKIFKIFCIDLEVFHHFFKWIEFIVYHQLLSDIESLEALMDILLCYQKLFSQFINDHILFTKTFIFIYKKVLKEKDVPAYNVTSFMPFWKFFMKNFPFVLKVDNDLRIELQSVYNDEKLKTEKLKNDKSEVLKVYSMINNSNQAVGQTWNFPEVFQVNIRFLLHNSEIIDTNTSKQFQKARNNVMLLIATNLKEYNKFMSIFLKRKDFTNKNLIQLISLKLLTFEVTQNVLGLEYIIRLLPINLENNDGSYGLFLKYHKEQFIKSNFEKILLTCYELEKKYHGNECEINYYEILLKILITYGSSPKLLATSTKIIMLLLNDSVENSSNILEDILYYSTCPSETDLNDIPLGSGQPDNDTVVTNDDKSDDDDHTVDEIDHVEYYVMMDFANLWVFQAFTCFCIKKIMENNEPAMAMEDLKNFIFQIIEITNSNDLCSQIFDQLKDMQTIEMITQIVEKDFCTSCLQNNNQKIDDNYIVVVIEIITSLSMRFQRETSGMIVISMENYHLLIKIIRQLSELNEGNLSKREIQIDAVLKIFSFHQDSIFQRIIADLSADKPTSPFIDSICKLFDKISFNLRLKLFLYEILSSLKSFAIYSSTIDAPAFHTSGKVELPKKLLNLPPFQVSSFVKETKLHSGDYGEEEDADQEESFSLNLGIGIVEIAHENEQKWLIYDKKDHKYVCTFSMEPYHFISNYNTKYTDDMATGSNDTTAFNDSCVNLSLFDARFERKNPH

T2: Cdk8 (Srb10) with a C-terminal TAP tag, S. cerevisiae (S. cerevisiae, UniProt P39073 1-555)
T2 sequence: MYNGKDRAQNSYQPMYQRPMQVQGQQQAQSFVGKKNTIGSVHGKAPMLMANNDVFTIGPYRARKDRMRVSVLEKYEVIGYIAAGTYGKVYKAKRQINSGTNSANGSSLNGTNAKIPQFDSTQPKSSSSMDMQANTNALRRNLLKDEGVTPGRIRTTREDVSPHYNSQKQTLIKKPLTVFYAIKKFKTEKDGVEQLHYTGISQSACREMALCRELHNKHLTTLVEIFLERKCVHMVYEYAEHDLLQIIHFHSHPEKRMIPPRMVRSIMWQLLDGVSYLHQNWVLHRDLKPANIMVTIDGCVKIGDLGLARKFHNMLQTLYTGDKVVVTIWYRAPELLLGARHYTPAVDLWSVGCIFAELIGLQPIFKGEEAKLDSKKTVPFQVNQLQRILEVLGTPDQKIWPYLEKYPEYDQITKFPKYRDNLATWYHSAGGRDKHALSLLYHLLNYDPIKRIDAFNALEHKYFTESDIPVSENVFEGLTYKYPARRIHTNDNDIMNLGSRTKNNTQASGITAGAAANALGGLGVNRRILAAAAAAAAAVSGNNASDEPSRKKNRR


Columns and labels:
[1] = biological target: T1, Med12 (Srb8), S. cerevisiae; test: cryo-EM structure
[2] = biological target: T2, Cdk8 (Srb10) with a C-terminal TAP tag, …; test: tandem affinity purification

binding result [1]	binding result [2]	Binder
binds	binds	CycC (Srb11), S. cerevisiae (natural protein) MSGSFWTSTQRHHWQYTKASLAKERQKLWLLECQLFPQGLNIVMDSKQNGIEQSITKNIPITHRDLHYDKDYNLRIYCYFLIMKLGRRLNIRQYALATAHIYLSRFLIKASVREINLYMLVTTCVYLACKVEECPQYIRTLVSEARTLWPEFIPPDPTKVTEFEFYLLEELESYLIVHHPYQSLKQIVQVLKQPPFQITLSSDDLQNCWSLINDSYINDVHLLYPPHIIAVACLFITISIHGKPTKGSSLASAASEAIRDPKNSSSPVQIAFNRFMAESLVDLEEVMDTIQEQITLYDHWDKYHEQWIKFLLHTLYLRPASAI
binds	–	Med13 (Srb9), S. cerevisiae (natural protein) MSSDASTYRLEDVLSSFYRVEKIKKINYHQYISKAQNDQWSIQMEFMLRKQDPKTLVALLSRDLWCFSINDDPVPTPPAIEHKPVSPDKIGTFTADYSKPNLPPHYALFLKALRRKIYINLALGSHNKLIQFGNACISLSGVPNYLVQLEPHLFVNGDLTVSLCAKNMGLVPMKEENLEESFLSKHALYLAPSGIRMHLAPASKQGYLITPPKHTELLLTTLSVSHGINLQNKKNLKWVAVVPDLGHLNGHTPTIASYLTPLLEAKKLVWPLHLIFAQPVADIENSTSGDPSEFHCLQDALDAIDDFIQLKQTAAYRTPGSSGVLSSNIAGTNPLSSDGAYTEQFQHYKNNSISSQPASYHSVQETNKISPKDFSPNFTGIDKLMLSPSDQFAPAFLNTPNNNINENELFNDRKQTTVSNDLENSPLKTELEANGRSLEKVNNSVSKTGSVDTLHNKEGTLEQREQNENLPSDKSDSMVDKELFGEDEDEDLFGDSNKSNSTNESNKSISDEITEDMFEMSDEEENNNNKSINKNNKEMHTDLGKDIPFFPSSEKPNIRTMSGTTKRLNGKRKYLDIPIDEMTLPTSPLYMDPGAPLPVETPRDRRKSVFAPLNFNPIIENNVDNKYKSGGKFSFSPLQKEEALNFDISMADLSSSEEEEDEEENGSSDEDLKSLNVRDDMKPSDNISTNTNIHEPQYINYSSIPSLQDSIIKQENFNSVNDANITSNKEGFNSIWKIPQNDIPQTESPLKTVDSSIQPIESNIKMTLEDNNVTSNPSEFTPNMVNSEISNLPKDKSGIPEFTPADPNLSFESSSSLPFLLRHMPLASIPDIFITPTPVVTISEKEQDILDLIAEQVVTDYNILGNLGIPKIAYRGVKDCQEGLITTTMLQLFSTFDRLNGNDTISKFYNMKQPYVFVKKHHELIKVKHDSQPFIKFLNFRPPNGIKNFKSLLLSSSFKEDCLSFAPTLSQTYINQELGFCELLKLTNEDPPGLMYLKAFDKNKLLLLAAQIVSYCSNNKNSIKNVPPILIILPLDNATLTELVDKANIFQVIKNEVCAKMPNIELYLKVIPMDFIRNVLVTVDQYVNVAISIYNMLPPKSVKFTHIAHTLPEKVNFRTMQQQQMQQQQQQQQQQQNNSTGSSSIIYYDSYIHLAYSRSVDKEWVFAALSDSYGQGSMTKTWYVGNSRGKFDDACNQIWNIALNLASKKFGKICLILTRLNGILPDDELMNWRRLSGRNIHLAVVCVDDNSKISFIDEDKLYPSFKPIYKDTRFGGRMDMTRLYDYEIRDIDQDIHGIVFQHPFPLAHSQHRCAIRSGALIKFKKCDGDTVWDKFAVNLLNCPHSDSTQLLETILEEFRNLAALNVWYGLSDGEDGHIPWHILAVKKMMNTLVHTRVKIANTSAATVHTATSSSIILSDK
